Data: patent publication US20220119529A1 (SUZHOU KANOVA BIOPHARMACEUTICAL, published 2022)
Where a chain is given by its changes, count along the chain named. Values belong to the binder of their own block, whether it stands above or below them.

Experiments:
[1] = biological target: T1, human B7H3-2Ig on BaF3 cells (BaF3/B7H3-2Ig) (human, UniProt Q5ZPR3 29-534); assay: flow cytometry (MFI) on BaF3 cells stably expressing human B7H3-2Ig; panel 'BaF3/2Ig-B7H3'
T1 chain: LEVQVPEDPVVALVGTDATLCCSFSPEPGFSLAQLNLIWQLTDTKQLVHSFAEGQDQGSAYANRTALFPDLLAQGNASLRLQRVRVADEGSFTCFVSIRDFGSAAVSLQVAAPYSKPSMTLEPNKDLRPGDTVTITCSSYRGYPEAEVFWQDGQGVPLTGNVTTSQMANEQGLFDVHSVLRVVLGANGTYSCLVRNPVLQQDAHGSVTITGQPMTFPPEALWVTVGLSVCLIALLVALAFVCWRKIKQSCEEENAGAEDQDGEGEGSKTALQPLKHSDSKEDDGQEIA

[2] = biological target: T2, human B7H3-4Ig on BaF3 cells (BaF3/B7H3-4Ig) (human, UniProt Q5ZPR3 29-534); assay: flow cytometry (MFI) on BaF3 cells stably expressing human B7H3-4Ig; panel 'BaF3/4Ig-B7H3'
T2 sequence: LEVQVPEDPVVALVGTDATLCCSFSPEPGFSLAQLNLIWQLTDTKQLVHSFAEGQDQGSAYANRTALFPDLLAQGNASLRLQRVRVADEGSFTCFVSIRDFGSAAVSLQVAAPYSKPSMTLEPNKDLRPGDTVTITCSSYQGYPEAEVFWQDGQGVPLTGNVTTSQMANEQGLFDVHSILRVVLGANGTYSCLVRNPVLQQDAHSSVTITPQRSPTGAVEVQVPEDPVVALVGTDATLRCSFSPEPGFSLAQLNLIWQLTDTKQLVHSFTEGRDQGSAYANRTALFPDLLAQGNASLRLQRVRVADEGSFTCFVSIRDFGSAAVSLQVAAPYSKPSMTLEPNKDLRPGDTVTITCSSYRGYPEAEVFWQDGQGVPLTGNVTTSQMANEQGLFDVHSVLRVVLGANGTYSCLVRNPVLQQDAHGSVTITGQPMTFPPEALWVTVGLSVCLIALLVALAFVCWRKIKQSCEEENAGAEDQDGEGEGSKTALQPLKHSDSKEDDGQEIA
Method: (§1) Cell surface binding affinity was tested with BaF3/B7H3-2Ig and BaF3/B7H3-4Ig the same method separately. Cells were washed with PBS and aliquot to 96-well U-bottom plate with a cell density of 5×10\hat{ }5 cells/well. For live/dead stain, LIVE/DEAD® Fixable Aqua Dead Cell Stain Kit (Life technologies, L34957) was applied (1:1000 in PBS, 100 ul/well) to cells, and incubated at 4° C. for 10 min FACS buffer (2% FBS in PBS, 100 ul/well) was added to each well to terminate staining. Centrifuge (1200 rpm, 5 min) to discard supernatant and wash with FACS buffer once. Humanized anti-B7H3 antibodies were diluted in FACS buffer to according concentrations and added to each well (100 ul/well). Cells were incubated at 4° C. for 30 min, and then, washed twice with FACS buffer. Alexa Fluor® 594 labeled goat anti-human IgG (Jackson Immuno Research, 109-585-088) was added (1:500 in FACS buffer) to label bounded antibodies. Cells were incubated at 4° C. for 30 min, and then, washed twice with FACS buffer.

[3] = biological target: T2, human B7H3-4Ig on BaF3 cells …; assay: flow cytometry on BaF3/B7H3-4Ig cells
Method: as §1

[4] = biological target: T3, Human B7-H3 extracellular domain (NCBI Reference Sequence: NM_025240.2) (human, UniProt Q5ZPR3 29-466); assay: SPR, Biacore 8K, antibody captured through Fc, B7-H3 ECD as analyte
T3 chain: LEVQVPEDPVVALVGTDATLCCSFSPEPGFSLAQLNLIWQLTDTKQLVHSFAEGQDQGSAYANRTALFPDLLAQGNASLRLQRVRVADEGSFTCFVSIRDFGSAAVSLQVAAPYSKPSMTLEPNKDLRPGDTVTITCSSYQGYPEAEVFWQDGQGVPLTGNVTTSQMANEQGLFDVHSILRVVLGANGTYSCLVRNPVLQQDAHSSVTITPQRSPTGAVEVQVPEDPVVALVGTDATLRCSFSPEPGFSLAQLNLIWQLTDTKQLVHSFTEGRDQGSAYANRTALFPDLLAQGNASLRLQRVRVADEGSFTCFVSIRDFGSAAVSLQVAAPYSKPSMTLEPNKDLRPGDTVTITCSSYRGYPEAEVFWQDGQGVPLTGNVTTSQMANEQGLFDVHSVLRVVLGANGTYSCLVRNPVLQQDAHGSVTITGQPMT

[5] = biological target: T1, human B7H3-2Ig on BaF3 cells …; assay: flow cytometry on BaF3/B7H3-2Ig cells
[6] = biological target: B7H3 expressed on LPS-stimulated human PBMCs (monocytes) (human) (UniProt Q5ZPR3); assay: flow cytometry (MFI) on LPS-stimulated human PBMCs; panel 'XKH007-2721'
[7] = biological target: T4, Cynomolgus B7H3 (plate-coated protein, ELISA) (cynomolgus monkey); assay: ELISA, antigen coated on plate, anti-human IgG-HRP
T4 chain: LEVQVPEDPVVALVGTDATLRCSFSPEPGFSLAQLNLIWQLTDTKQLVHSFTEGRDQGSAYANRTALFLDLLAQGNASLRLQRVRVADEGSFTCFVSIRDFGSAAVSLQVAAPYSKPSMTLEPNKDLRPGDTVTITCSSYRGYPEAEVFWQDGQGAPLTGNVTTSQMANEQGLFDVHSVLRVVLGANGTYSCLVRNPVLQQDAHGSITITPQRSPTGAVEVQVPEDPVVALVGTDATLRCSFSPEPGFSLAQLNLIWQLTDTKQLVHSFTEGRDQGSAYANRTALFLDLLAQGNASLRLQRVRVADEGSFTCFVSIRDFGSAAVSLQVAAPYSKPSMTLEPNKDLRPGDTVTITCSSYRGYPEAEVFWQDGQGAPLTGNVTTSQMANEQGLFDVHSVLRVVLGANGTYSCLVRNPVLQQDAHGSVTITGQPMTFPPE
Method: (§2) In order to test humanized anti-B7H3 antibody binding affinity, an ELISA analysis was carried out. Human B7H3, mouse B7H3, and cynomolgus B7H3 (2 ug/ml, in PBS) were coated on MaxiSorp 96-well plates (NUNC, 449824) in 0.5M carbonate/bicarbonate buffer, pH9.6, incubated at 4° C. overnight. Coated plates were blocked with skimmed milk (5%, in PBST) for 1 h. Humanized anti-B7H3 antibodies were diluted and added to the plates, and incubated for 2 h at room temperature. Washed three times with PBST (1×PBS with 0.05% tween-20) to eliminate un-bounded antibodies. Goat anti-Human IgG-HRP (Easybio, BE0122, 1:5000 in PBS) was added and incubated for 1 h. Washed three times with PBST (lx PBS with 0.05% tween-20) to eliminate un-bounded antibodies. TMB (eBioscience, 00-4201-56) was added (50 ul/well) for color rendering and stopped by 2N H2SO4 (50 ul/well). Optical density was measured at 450 nm and […]. As shown in FIG. 1A and Table 1, the antibodies bind to human, mouse and cynomolgus monkey B7H3 protein with high affinity. The binding ability of the mAbs to cynomolgus B7H3 is similar to that for human B7-H3 protein.

[8] = biological target: T5, Mouse B7H3 (plate-coated protein, ELISA) (mouse, UniProt Q8VE98 29-248, limits assumed); assay: ELISA, antigen coated on plate, anti-human IgG-HRP
T5 sequence (looked up): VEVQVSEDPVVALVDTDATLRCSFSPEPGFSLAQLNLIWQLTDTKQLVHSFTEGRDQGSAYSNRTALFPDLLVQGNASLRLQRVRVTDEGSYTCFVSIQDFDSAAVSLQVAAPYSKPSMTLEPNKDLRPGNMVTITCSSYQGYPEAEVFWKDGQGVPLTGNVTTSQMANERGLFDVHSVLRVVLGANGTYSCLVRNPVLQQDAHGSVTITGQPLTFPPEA
Method: as §2

[9] = biological target: B7H3 expressed on LPS-stimulated human PBMCs (monocytes) (human) (UniProt Q5ZPR3); assay: flow cytometry on LPS-stimulated human PBMCs
[10] = biological target: Human B7H3 (plate-coated protein, ELISA) (human) (UniProt Q5ZPR3); assay: ELISA, antigen coated on plate, anti-human IgG-HRP
[11] = biological target: T2, human B7H3-4Ig on BaF3 cells …; assay: flow cytometry (MFI) on BaF3 cells stably expressing human B7H3-4Ig; panel 'BaF3-B7H3-4Ig'
Method: as §1

[12] = biological target: B7H3 expressed on LPS-stimulated human PBMCs (monocytes) (human) (UniProt Q5ZPR3); assay: flow cytometry (MFI) on LPS-stimulated human PBMCs; panel 'XKH007 23-5423'
[13] = biological target: B7H3 expressed on LPS-stimulated human PBMCs (monocytes) (human) (UniProt Q5ZPR3); assay: flow cytometry (MFI) on LPS-stimulated human PBMCs; panel 'XKH007 23-5424'
[14] = biological target: B7H3 expressed on LPS-stimulated human PBMCs (monocytes) (human) (UniProt Q5ZPR3); assay: flow cytometry (MFI) on LPS-stimulated human PBMCs; panel 'XKH007-272121'
[15] = biological target: B7H3 expressed on LPS-stimulated human PBMCs (monocytes) (human) (UniProt Q5ZPR3); assay: flow cytometry (MFI) on LPS-stimulated human PBMCs; panel 'XKH007-2722'

B1: #27-21 (VH2-2-VL2-1) (antibody, V domains shown)
VH: QVQLVQSGAEVVKPGASVKVSCKASGYTFTNYWMHWVKQAPGQGLEWIGMIHPNSGAFNYNERFKTRVTITVDKSTSTAYMELSSLRSEDTAVYYCARSTALATGYWGQGTLLTVSS
VL: DIQLTQSPSFLSASVGDRVTITCSASSSVSYMYWYQQKPGKSPKLLIYDTSNLASGVPSRFSGSGSGTEYTLTISSLQPEDFATYYCQQWSSYPLTFGQGTKLEIK
notes: Humanized antibody from murine #27; Detected with anti-human IgG and captured through Fc; also called #27-VH2-2/VL2-1
EC50 [1]: 0.897 nM
EC50 [2]: 0.896 nM
EC50 [3]: < 1 nM
Kd [4]: 1.44 nM
koff [4]: 0.000431 s⁻¹
kon [4]: 299000 M⁻¹ s⁻¹
EC50 [5]: < 1 nM
EC50 (read off the curve) [6]: 0.06 nM
EC50 [7]: 0.685 nM
EC50 [8]: 0.586 nM
EC50 [9]: < 1 nM
EC50 [10]: 0.618 nM

B2: #23-5423 (VH5-4-VL2-3) (antibody, IgG1, V domains shown)
VH: QVQLVQSGAEVKKPGESLKISCKASGYNFNNYWMHWVRQRPGKGLEWIGMIHPNSGTFNYNERFKRKATLTVDKSISTAYLQWSSLKAEDTAMYYCAKSTALATDYWGQGTLVTVSS
VL: B1 VL with D1Q, Q3V, F10T, S42A, S59I, E69S, E80D
notes: Humanized antibody from murine #23
binding result [11]: binds
EC50 [12]: 1.54 nM
Kd [4]: 1.05 nM
koff [4]: 0.000345 s⁻¹
kon [4]: 329000 M⁻¹ s⁻¹
EC50 [7]: 0.042 nM
EC50 [8]: 1.44 nM
EC50 [9]: < 3 nM
EC50 [10]: 0.0685 nM

B4: #27-2121 (VH2-1-VL2-1) (antibody, IgG1, V domains shown)
VH: B1 VH with K38R, I48M, L113V
VL: B1 VL
notes: Humanized antibody from murine #27; also called #27-VH2-1/VL2-1
EC50 [1]: 0.777 nM
EC50 [2]: 0.908 nM
EC50 [3]: < 1 nM
EC50 [14]: 0.117 nM
Kd [4]: 1.42 nM
koff [4]: 0.000433 s⁻¹
kon [4]: 306000 M⁻¹ s⁻¹
EC50 [5]: < 1 nM
EC50 [7]: 0.494 nM
EC50 [8]: 0.462 nM
EC50 [9]: < 1 nM
EC50 [10]: 0.583 nM

Further binders by falling Kd [4], results first:

binding result [11]: binds
EC50 [13]: 1.98 nM
Kd [4]: 1.36 nM
koff [4]: 0.000356 s⁻¹
kon [4]: 263000 M⁻¹ s⁻¹
EC50 [7]: 0.0652 nM
EC50 [8]: 4.9 nM
EC50 [9]: < 3 nM
EC50 [10]: 0.125 nM
B3: #23-5424 (VH5-4-VL2-4) (antibody, IgG1, V domains shown)
VH: B2 VH
VL: B1 VL with D1Q, Q3V, F10T, I21M, S42A, S59I, E69S, L77M, E80D, A83V
notes: Humanized antibody from murine #23; also called #23-VH5-4/VL2-4

EC50 [1]: 1.16 nM
EC50 [2]: 0.984 nM
EC50 [3]: < 1 nM
Kd [4]: 1.26 nM
koff [4]: 0.000365 s⁻¹
kon [4]: 288000 M⁻¹ s⁻¹
EC50 [5]: < 1 nM
EC50 [15]: 0.131 nM
EC50 [7]: 0.584 nM
EC50 [8]: 0.34 nM
EC50 [9]: < 1 nM
EC50 [10]: 0.333 nM
B5: #27-22 (VH2-2-VL2-2) (antibody, IgG1, V domains shown)
VH: B1 VH
VL: B1 VL with I21M, A83V
notes: Humanized antibody from murine #27; also called #27-VH2-2/VL2-2
